Consider 41 sequences from the nanobody polyreactivity screen of Harvey et al. (2022).

This data set is described as follows: yeast display, Sf9 membrane polyspecificity reagent, FACS + sequencing; frameworks hold sequencing errors. The procedure, abridged: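 Synthetic nanobody libraries on Saccharomyces cerevisiae BJ5465 were galactose-induced for 36–48 hours, stained 1 hour at 4 °C with 10% biotinylated, detergent-solubilized Sf9 membrane reagent and enriched on streptavidin microbeads. FACS then separated cells into low and high (top ~1%) gates by anti-HA (expression) and streptavidin (reagent binding) fluorescence. Genes were colony-PCR amplified, MiSeq 2 × 250 sequenced and CDR-length filtered. A clone's polyreactivity label is that of its gate of origin.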
Regarding “QGQLVESGGGLVQAGGSLRLSCAASGFTFSYYAMGWYRQAPGKERELVAAISRSGGSTYYADSVKGRFTISRDNAKNTVYLQMNSLKPEDTEVYYCAKRIKDRSGEAYVGLYYWGQGTQVTVSS”, the “polyreactivity (PSR sort gate)” value is “high polyreactivity”.

For “QGQLVESGGGLVQAGGSLRLSCAASGFTFTRNTMGWYRQAPGKERELVAAITRGGSTNYADSVKGRFTISRDNAKNTVYLQLNSLKPEDTAVYYCNKGRNVVLVRTADDYWGQGTQVTVSS”, the “polyreactivity (PSR sort gate)” value is listed as “low polyreactivity”.

Regarding “QGQLVESGGGLVQAGGSLRLSCAASGGIFIFYAMGWYRQAPGKERELVAAISNVSSTNYADSVKGRFTISRDNAKNTVYLQMNSLKPEDTAVYYCNAVGVPSEYYSWGQGTQVTVSS”, the “polyreactivity (PSR sort gate)” value is “low polyreactivity”.

In the case of “QGQLVESGGGLVQAGGSLRLSCAASGGTFLWNAMGWYRQAPGKERELVAAIRWSGARTYYADSVKGRFTISRDNAKNTVYLQMNSLKPEDTAVYYCASENYWYWPYNGMYYWGQGTQVTVSS”, the “polyreactivity (PSR sort gate)” value is recorded as “high polyreactivity”.

Take “QGQLVESGGGLVQAGGSLRLSCAASGLIFTYYDMGWYRQAPGKERELVAAISRRGTSTYYADSVKGRFTISRDNAKNTVYFQMNSLKPEDTEVYYCAADYYYFDSQQGMDYWGQGTQVTVSS”: the “polyreactivity (PSR sort gate)” value is “high polyreactivity”.

In the case of “QGQLVESGGGLVQAGGSLRLSCAASGLTFGYYDMGWYRQAPGKERELVAAITVRGGSTYYADSVKGRFTISRDNAKNTVYLQINSLKPEDTAVYYFNKRLFWSRHYYYWGQGTQVTVSS”, the “polyreactivity (PSR sort gate)” value is reported as “high polyreactivity”.

As for “QGQLVESGGGLVQAGGSLRLSCAASGLTFSPNAMGWYRQEPGKERELVAAISSSGGRTNYADSVKGRFTISRDNAKNPVYLLMNSLKPEDTAVYYCFTNSFYEDDDWGQGTQVTVSS”, the “polyreactivity (PSR sort gate)” value is reported as “high polyreactivity”.

Take “QGQLVESGGGLVQAGGSLRLSCAASGRIFNRNAMGWYRQAPGKERELVAAITRGGRTNYADSVKGRFTISRDNAQNTVYLQMNSLKPEDTAVYYCAAAYYGSHGRYDYWGQGTQVTVSS”: the “polyreactivity (PSR sort gate)” value is given as “high polyreactivity”.

For “QGQLVESGGGLVQAGGSLRLSCAASGRIFSYNTMGWSRQAPGKERELVAAISTSGGSPYYADSVKGRFTISRDNAKNTVYLQMNSLTPEDTAVYYCNTVWTFRTSSNYDFWGQGTQVTVSS”, the “polyreactivity (PSR sort gate)” value is recorded as “low polyreactivity”.

On to “QGQLVESGGGLVQAGGSLRLSCAASGRIFTRYALGWYRQAPGNEREFVARSTGSGGRTYYADSVKGRFSISRDNAKNTVYLQMNSLKPEDTAVYYCNARRPSWHSYDYGYADYYWGQGTQVTVSS”, for which the “polyreactivity (PSR sort gate)” value is “high polyreactivity”.

As to “QGQLVESGGGLVQAGGSLRLSCAASGRIFVKNAMGWYRQAPGKERELVAAINWRGTSTYYADSVKGRFTISRDNAKNTVYLQMNSLKPEDTAVYYCNRVLGYPYGVDYWGQGTQVTVSS”, the “polyreactivity (PSR sort gate)” value is given as “high polyreactivity”.

As to “QGQLVESGGGLVQAGGSLRLSCAASGRIFYRTAMGWSSQAPGQERELVAVISGSGGRTYYADSVKGRFTIARDNAKNTVYLQMNSLKPEDTAVYYCARRAAYYSYLYSHYPWSYYYWGPGTQVTVSS”, the “polyreactivity (PSR sort gate)” value is “high polyreactivity”.

As for “QGQLVESGGGLVQAGGSLRLSCAASGRTFIGNVMGWYRQAPGKERELVAAISKSGTRTYYADSVKGRFTISRDIAKNTVYLQMNSLKPEDTAVYYCAASSYTHKRYPSPYDYWGQGTQVTVSA”, the “polyreactivity (PSR sort gate)” value is “high polyreactivity”.

As to “QGQLVESGGGLVQAGGSLRLSCAASGRTFPRYAMGWYRQAPGKERELVAVISFSGDSTSYADSVKGRFTISRDNAKNTVYLQMNSQKPEDTAVYYCKADYKSTVVRYSGSRNYWGQGTQVTVSS”, the “polyreactivity (PSR sort gate)” value is listed as “low polyreactivity”.

For “QGQLVESGGGLVQAGGSLRLSCAASGRTFYYNGMGWYRQAPGKERELVATITNGGSTNYADSVKGRFTISRDNAKNTVYLQMNSLKPEDTAVYYCAKTLASDCYDYWGQGTQVTVSS”, the “polyreactivity (PSR sort gate)” value was “low polyreactivity”.

As for “QGQLVESGGGLVQAGGSLRLSCAASGSIFGINAMGWYRQAPGKERELVAAISGSTSRTYYADSVKGRFTISRDNAKKTVYLQMNSLKPEDTAVYYCAVVGLRSVTRRSDYWGQGTQVTVSS”, the “polyreactivity (PSR sort gate)” value is given as “high polyreactivity”.

For the sequence “QGQLVESGGGLVQAGGSLRLSCAASGSIFPVYAMGWYRQAPGKEREFVARIRFSGGRTYYADSVQGRFTISRDNAKNTVYLQMNSLKPEDTAVYYCAKAQYSGRYGYWGQGTQVTVSS”, the “polyreactivity (PSR sort gate)” value was “high polyreactivity”.

Regarding “QGQLVESGGGLVQAGGSLRLSCAASGSIIRSYAMGWYRQAPGKERELVASISRRGGSTYYADSVKGRFTISRDNAKNTVYLQMNSLKPEDTAVYYCAAVRYNSRVSTTPSEMYYWGQGTQVTVSS”, the “polyreactivity (PSR sort gate)” value was “low polyreactivity”.

On to “QGQLVESGGGLVQAGGSLRLSCAASGSTFPSYAMGWYRQAPGKERELVAAISRRSSRTYYADSVKGRFTISRDNAKNTVYLQMNSLKPEDTAVYYCNADAGRHSDEYGYDYWGQGTEVTVSS”, for which the “polyreactivity (PSR sort gate)” value is on record as “high polyreactivity”.

Consider “QGQLVESGGGLVQAGGSLRLSCAASGSTVPQYAMGWYRQAPGKERELVAVITDSGGSTYYADSVKGRFTISRDNAKNTVYLQMNSLKPEDTAVYYCAARRWSPRSGLGYGYWGQGTQVTVSS”, for which the “polyreactivity (PSR sort gate)” value is “high polyreactivity”.

As to “QGQLVESGGGLVQAGGSLRLSCAASGYTFNYNTMGWYRQAPGKVRELVAAINTSGSTYYADSVKGRFTISRDNAKNTVYLQMNSLKPEDTAVYYCAVRVAYKYNYWGQGTQVTVSS”, the “polyreactivity (PSR sort gate)” value is on record as “high polyreactivity”.

Turning to “QGQLVESGGGLVQAGGSLRLSCAATGLIFDTNAMGWYRQAPGKERELVAAINSTGSTNYADSVKGRFTISRDNAKNTVYLQMNSLKREDTAVYYCAVEYDSSAQPRTEFDYWGQGTQVTVSS”, the “polyreactivity (PSR sort gate)” value was “low polyreactivity”.

Consider “QGQLVESGGGLVQAGGSLRLSCPASGYIFWTNNMGWYRQSPGKERELVAAISYSGSSTYYADSVKGRFTISRDNAKNTVYLQMNSLKPEDTAVYYCAKKVRRYPTRYDSWGQGTQVTVSS”, for which the “polyreactivity (PSR sort gate)” value is “high polyreactivity”.

As for “QGQLVESGGGLVQAGGSLRLTCAASGFSFFDYAMGWYRQAPWKERELVAAISWDGDNTYYADSVKGRFTISRDNAKYTVYLQMNSLKPDDSAVYYCNADYENYEQFFDYWGQGTQVTVSS”, the “polyreactivity (PSR sort gate)” value is “high polyreactivity”.

For the sequence “QGQLVESGGGLVQAGGSLRLTCAASGLTFWWYAMGWYRQAPGKERELVAAISSSGGSTYYADSVKGRFTISRDNAKNTVYLQMNSLKPEDTAVYYCAADGGFEYEYDYWGQGTQVTVTS”, the “polyreactivity (PSR sort gate)” value is listed as “low polyreactivity”.

Regarding “QGQLVESGGGLVQAGVSLRLTCAASGSTFLTNSMGWYRQAPGKEREFVAAISRTGGSTYYADSVKGRFTISRDNAKNTVYLQMNSLKPEDTAVYYCAVYPYGRWLNYWGQGTQVTVSS”, the “polyreactivity (PSR sort gate)” value is listed as “high polyreactivity”.

Turning to “QGQLVESGGGLVQGGGSLRLSCAACGSTLPSSARGWYIQAPGKDRELVAALRSGGTTNYADSVKGRFTISRDNAKNTVYVQMNSLKPEDTAVYYCATSRYLYWRSRYDYWGQGTQVTVSS”, the “polyreactivity (PSR sort gate)” value is listed as “high polyreactivity”.

Turning to “QGQLVESGGRLVQAGGSLRLSCAASGFTFDSYAMAWYRQAPGKERELVASISSSGSTNYADSVKGRFTISRDNAKNTVYLQMNSLKPEDTAVYYCAAVSRYPFIYEYWGQGTQVTVSS”, the “polyreactivity (PSR sort gate)” value is given as “low polyreactivity”.

As to “QGQLVESGRGLVQAGGSLRLSCAASGRIFVIYDIGWYRQAPGKEREFVAAISWRSGSTYYADSVKGRFTISRDNAKNTVYLQMNSLKPDDTAVYDCNKDYHVRYYYWGQGTQVTVSS”, the “polyreactivity (PSR sort gate)” value was “low polyreactivity”.

With “QGQLVESGVGLVQAGGSLSLSCAASGSILNNYAMAWYIQAPGKERELVAAISSSGGTNYADSVKGRFTISRDNAKNTVYLQMNSLKPEDTAVYYCNADVLDGGYDYWGQGTQVTVSS”, the “polyreactivity (PSR sort gate)” value was “low polyreactivity”.

In the case of “QGQLVESRGGLVQAGGRLRLSCAASGAIVSKNAMGWYRQAPGKERELVAAISRSAGSTYYADSVKGRFTISRVNAKNTVYLQLHSLKPEDTAVFYCAADWYYWQLWWGEGDYWGQGTQVTVSS”, the “polyreactivity (PSR sort gate)” value is “low polyreactivity”.

“QGQLVESRGGLVQAGGSLRLSCAASGRTFYYYGMGWYIQAPGKERELVATINSGASTYYADSVKGRFTISRDNAKNTVYLQINSLKPEDTAVYYCDAAKENGKYDYWGQGTQVTVSS”: the “polyreactivity (PSR sort gate)” value is given as “high polyreactivity”.

“QGQLVESWGGLVQAGGSLRLSSDASGRTFSLYAMGWYRQAPGKQTELVASITDSTGGSTYYADSVKGRFTISRDNAKNTVYLQMNSLKPADTAVYYSAAQDYQYSDYQWWFGFWGQGTQVTVSS”: the “polyreactivity (PSR sort gate)” value is on record as “low polyreactivity”.

Take “QGQLVETGGGLGQAGGSLRLSCAASGRIFPTNAMGWSRPAPGKERELVAAIPVSGGSTFYADSVKGRFTISRDNAKNTVYLQLNSLKPDDTAVDDCAVDDRASVGSRLDHWGQGTQVTVSS”: the “polyreactivity (PSR sort gate)” value is on record as “low polyreactivity”.

Take “QGQLVVSGGGLVQAGGSLRLSCAASGRTFSVNAMGGYRQAPGKERELVAAITSGASTNYADSVKGRFTISRDNAKNTVYLQMNSLKPEDTAVYYCAADATYGHVPAEYDYWGQGTQVTVSS”: the “polyreactivity (PSR sort gate)” value is “low polyreactivity”.

For the sequence “QGQRVESAGGLVQAGGSLRLSCDASGRIFDNYAMGWSSPAPGKERELVAAISRAGNTYADSVKGRVTISRDNAKNTVNLQMNSLNPEETAVFYCAARLYWGRYNYWGQGTQVTVSS”, the “polyreactivity (PSR sort gate)” value was “high polyreactivity”.

On to “QGQRVESGGGLVQAGGSLRLSCAASGRIFRGYDMGWYRQSPGKERELVAAISGSGGSTYYADSVKGRFTISRDYAKNSVYLQMNSLQPEDTAVYYCAADQQSTGDWAGDYWGQGTQVTVSS”, for which the “polyreactivity (PSR sort gate)” value is “low polyreactivity”.

On to “QGQRVESGGGLVQAGGSLRLSCAASGSIFHGYAMGWDRQAPGKERELVADITSGGGTYYADSVKGRFTISRDNAKTTVYLQMNSLKPEDTAVYYCATQKSRRYGYWVQGTQVTVSS”, for which the “polyreactivity (PSR sort gate)” value is given as “low polyreactivity”.

As to “QHQLVESGGGLVQAGGSLRLSCAASGRTFYWNAMGWYRQAPGKERELVAGISNGGTTTYYADSVKGRFTISRDNAKNTVYLQMNSLKPEDTAVYYCAADIWYFDYDYWGQGTQVNVSS”, the “polyreactivity (PSR sort gate)” value was “high polyreactivity”.

As to “QIQLVESGGGLDQAGGSLRLSCAASGSNFVWNAMGWSRQAPGKERELVAAISYTDGSTYYADSVKGRFTISRDNAKNTVYLQMNSLKREDTAVYYCAAAITPSYTGSQYDYWGQGTQVTVSS”, the “polyreactivity (PSR sort gate)” value is given as “low polyreactivity”.

As to “QIQLVESGGGLLQAGGSLGLSCAASGSIFVKYAMGWYRQAPGKERELVAAITTGVGSTYYADSVKGRFTISRDNAKNTVYLQMNSVKPEDSAVFYWNAYAYFGPWWSFRATYDYWGQGTQVTVSS”, the “polyreactivity (PSR sort gate)” value is given as “low polyreactivity”.
